The target of data set [1] is TEE polymerase K276C,Q307E,Q451C (Bacillus stearothermophilus) (UniProt Q04957). Kind of data set: BLI. The following applies: first round 1.10 vs 0.4; second round after incorporation 4.83; very low binary signal; 900 nM, 100 mM KCl, 320 mM K-glutamate, 2 mM SrCl2; scale: ratio correct to highest incorrect signal.
Data set [2] has as its target DSA polymerase K276C,Q451C (Bacillus stearothermophilus) (UniProt Q04957). Nature of the data set: BLI. The note with it: first round 1.75 vs 0.9; second round after incorporation 1.60; 300 nM, 100 mM KCl, 320 mM K-glutamate, 2 mM SrCl2; lower binary and ternary signal than CBT in …; scale: ratio correct to highest incorrect signal.

Take “primed template, next correct nucleotides AT (Examples 3 and 5)”: the binding signal worked out at 2.75 in data set [1] and 1.95 in data set [2].

The values are drawn from US20180155698.
